# Laboratory results: US20150344570A1 (published 2015)
# T1: FcγRIIa H (human, UniProt P12318 34-217)
# T1 construct: extracellular domain; also called FcγRIIa type H; 2aH; not shown: His tag at the C terminus
# T1 sequence (looked up): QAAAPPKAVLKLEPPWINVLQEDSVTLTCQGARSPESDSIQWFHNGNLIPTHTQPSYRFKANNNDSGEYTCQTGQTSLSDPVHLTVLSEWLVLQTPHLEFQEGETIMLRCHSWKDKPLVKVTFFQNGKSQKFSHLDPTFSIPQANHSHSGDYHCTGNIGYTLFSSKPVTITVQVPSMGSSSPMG
# T2: FcγRIIb (human, UniProt P31994 43-217)
# T2 construct: extracellular domain; also called 2b; not shown: His tag at the C terminus
# T2 sequence (looked up): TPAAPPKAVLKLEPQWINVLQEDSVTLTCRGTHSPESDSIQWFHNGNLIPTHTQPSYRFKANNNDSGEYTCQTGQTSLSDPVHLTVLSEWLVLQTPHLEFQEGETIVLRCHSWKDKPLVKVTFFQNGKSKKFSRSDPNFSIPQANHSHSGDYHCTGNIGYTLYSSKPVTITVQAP
# T3: FcγRIIa H (FcgRIIa type H, His at position 131), extracellular domain with C-terminal His tag (human, UniProt P12318 34-217)
# T3 construct: extracellular domain; also called 2aH; FcgRIIa H; not shown: His tag at the C terminus
# T3 sequence (looked up): T1 sequence (looked up)
# T4: FcγRIIb, extracellular domain with C-terminal His tag (human, UniProt P31994 43-217)
# T4 construct: extracellular domain; also called 2b; FcgRIIb; not shown: His tag at the C terminus
# T4 sequence (looked up): T2 sequence (looked up)
# B1: GpH7-A5/GpH7-B3 variant A330_11K/GpL16-k0 (antibody, human IgG1, kappa)
# heavy 1: not shown
# heavy 2: not shown
# light: DIVMTQSPLSLPVTPGEPASISCQASESLVHSNRNTYLHWYLQKPGQSPQLLIYKVSNRFSGVPDRFSGSGSGTDFTLKISRVEAEDVGVYYCSQNTHVPPTFGQGTKVEIERTVAAPSVFIFPPSDEQLKSGTASVVCLLNNFYPREAKVQWKVDNALQSGNSQESVTEQDSKDSTYSLSSTLTLSKADYEKHKVYACEVTHQGLSSPVTKSFNRGEC
# notes: Heterodimerized IgG1; mutation in the GpH7-B3 chain only; also called He Ab
# B2: GpH7-A5/GpH7-B3 variant A330_19Q/GpL16-k0 (antibody, human IgG1, kappa)
# heavy 1: not shown
# heavy 2: not shown
# light: B1 light
# notes: as for B1
# B3: GpH7-A5/GpH7-B3 variant A330_16H/GpL16-k0 (antibody, human IgG1, kappa)
# heavy 1: not shown
# heavy 2: not shown
# light: B1 light
# notes: as for B1
# B4: GpH7-A5/GpH7-B3 variant A330_12R/GpL16-k0 (antibody, human IgG1, kappa)
# heavy 1: not shown
# heavy 2: not shown
# light: B1 light
# notes: as for B1
# B5: GpH7-A5/GpH7-B3 variant E333_08L/GpL16-k0 (antibody, human IgG1, kappa)
# heavy 1: not shown
# heavy 2: not shown
# light: B1 light
# notes: as for B1
# B6: GpH7-A5/GpH7-B3 variant E333_04F/GpL16-k0 (antibody, human IgG1, kappa)
# heavy 1: not shown
# heavy 2: not shown
# light: B1 light
# notes: as for B1
# B7: GpH7-A5/GpH7-B3 variant D270_10E/GpL16-k0 (antibody, human IgG1, kappa)
# heavy 1: not shown
# heavy 2: not shown
# light: B1 light
# notes: as for B1
# B8: GpH7-A5/GpH7-B3 variant N325_06M/GpL16-k0 (antibody, human IgG1, kappa)
# heavy 1: not shown
# heavy 2: not shown
# light: B1 light
# notes: He Ab; alteration in one H chain only; also called He Ab
# B9: GpH7-A5/GpH7-B3 variant N325_03V/GpL16-k0 (antibody, human IgG1, kappa)
# heavy 1: not shown
# heavy 2: not shown
# light: B1 light
# notes: as for B8
# B10: GpH7-A5/GpH7-B3 variant N325_01G/GpL16-k0 (antibody, human IgG1, kappa)
# heavy 1: not shown
# heavy 2: not shown
# light: B1 light
# notes: as for B8
# B11: GpH7-A5/GpH7-B3 variant P331_04F/GpL16-k0 (antibody, human IgG1, kappa)
# heavy 1: not shown
# heavy 2: not shown
# light: B1 light
# notes: as for B8
# B12: GpH7-A5/GpH7-B3 variant N325_13S/GpL16-k0 (antibody, human IgG1, kappa)
# heavy 1: not shown
# heavy 2: not shown
# light: B1 light
# notes: as for B8
# B13: GpH7-A5/GpH7-B3 variant P331_16H/GpL16-k0 (antibody, human IgG1, kappa)
# heavy 1: not shown
# heavy 2: not shown
# light: B1 light
# notes: as for B8
# B14: GpH7-A5/GpH7-B3 variant L328_09D/GpL16-k0 (antibody, human IgG1, kappa)
# heavy 1: not shown
# heavy 2: not shown
# light: B1 light
# notes: as for B8
# B15: GpH7-A5/GpH7-B3 variant P331_07I/GpL16-k0 (antibody, human IgG1, kappa)
# heavy 1: not shown
# heavy 2: not shown
# light: B1 light
# notes: as for B8
# B16: GpH7-A5/GpH7-B3 variant P331_15Y/GpL16-k0 (antibody, human IgG1, kappa)
# heavy 1: not shown
# heavy 2: not shown
# light: B1 light
# notes: as for B8
# B17: GpH7-A5/GpH7-B3 variant N325_07I/GpL16-k0 (antibody, human IgG1, kappa)
# heavy 1: not shown
# heavy 2: not shown
# light: B1 light
# notes: as for B8
# B18: GpH7-A5/GpH7-B3 variant N325_04F/GpL16-k0 (antibody, human IgG1, kappa)
# heavy 1: not shown
# heavy 2: not shown
# light: B1 light
# notes: as for B8
# B19: GpH7-A5/GpH7-B3 variant N325_08L/GpL16-k0 (antibody, human IgG1, kappa)
# heavy 1: not shown
# heavy 2: not shown
# light: B1 light
# notes: as for B8
# B20: GpH7-A5/GpH7-B3 variant K334_18N/GpL16-k0 (antibody, human IgG1, kappa)
# heavy 1: not shown
# heavy 2: not shown
# light: B1 light
# notes: as for B8
# B21: GpH7-A5/GpH7-B3 variant K334_20W/GpL16-k0 (antibody, human IgG1, kappa)
# heavy 1: not shown
# heavy 2: not shown
# light: B1 light
# notes: as for B8
# B22: GpH7-A5/GpH7-B3 variant L328_10E/GpL16-k0 (antibody, human IgG1, kappa)
# heavy 1: not shown
# heavy 2: not shown
# light: B1 light
# notes: as for B8
# B23: GpH7-A5/GpH7-B3 variant P331_03V/GpL16-k0 (antibody, human IgG1, kappa)
# heavy 1: not shown
# heavy 2: not shown
# light: B1 light
# notes: as for B8
# B24: GpH7-A5/GpH7-B3 variant L328_15Y/GpL16-k0 (antibody, human IgG1, kappa)
# heavy 1: not shown
# heavy 2: not shown
# light: B1 light
# notes: as for B8
# B25: GpH7-A5/GpH7-B3 variant N325_20W/GpL16-k0 (antibody, human IgG1, kappa)
# heavy 1: not shown
# heavy 2: not shown
# light: B1 light
# notes: as for B8
# B26: GpH7-A5/GpH7-B3 variant S337_15Y/GpL16-k0 (antibody, human IgG1, kappa)
# heavy 1: not shown
# heavy 2: not shown
# light: B1 light
# notes: as for B8
# B27: GpH7-A5/GpH7-B3 variant L328_03V/GpL16-k0 (antibody, human IgG1, kappa)
# heavy 1: not shown
# heavy 2: not shown
# light: B1 light
# notes: as for B8
# B28: GpH7-A5/GpH7-B3 variant S337_18N/GpL16-k0 (antibody, human IgG1, kappa)
# heavy 1: not shown
# heavy 2: not shown
# light: B1 light
# notes: as for B8
# B29: GpH7-A5/GpH7-B3 variant L328_07I/GpL16-k0 (antibody, human IgG1, kappa)
# heavy 1: not shown
# heavy 2: not shown
# light: B1 light
# notes: as for B8
# B30: GpH7-A5/GpH7-B3 variant K334_12R/GpL16-k0 (antibody, human IgG1, kappa)
# heavy 1: not shown
# heavy 2: not shown
# light: B1 light
# notes: as for B8
# B31: GpH7-A5/GpH7-B3 variant L328_19Q/GpL16-k0 (antibody, human IgG1, kappa)
# heavy 1: not shown
# heavy 2: not shown
# light: B1 light
# notes: as for B8
# B32: GpH7-A5/GpH7-B3 variant P331_06M/GpL16-k0 (antibody, human IgG1, kappa)
# heavy 1: not shown
# heavy 2: not shown
# light: B1 light
# notes: as for B8
# B33: GpH7-A5/GpH7-B3 variant L328_04F/GpL16-k0 (antibody, human IgG1, kappa)
# heavy 1: not shown
# heavy 2: not shown
# light: B1 light
# notes: as for B8
# B34: GpH7-A5/GpH7-B3 variant P331_20W/GpL16-k0 (antibody, human IgG1, kappa)
# heavy 1: not shown
# heavy 2: not shown
# light: B1 light
# notes: as for B8
# B35: GpH7-A5/GpH7-B3 variant N325_09D/GpL16-k0 (antibody, human IgG1, kappa)
# heavy 1: not shown
# heavy 2: not shown
# light: B1 light
# notes: as for B8
# B36: GpH7-A5/GpH7-B3 variant P331_10E/GpL16-k0 (antibody, human IgG1, kappa)
# heavy 1: not shown
# heavy 2: not shown
# light: B1 light
# notes: as for B8
# Target: T1, FcγRIIa H
# Test: SPR (Biacore), antibody captured, FcγR as analyte; binding relative to GpH7-A5/GpH7-B3/GpL16-k0 = 100
# Method: (§1) The heterodimerized antibodies He Abs in which one of the H chains was introduced with an alteration were assayed for their binding activities to each activating FcγR and inhibitory FcγR according to the method described in Example 4. […] The activating FcγRs in FIGS. 26, 27, 28, and 29 are FcγRIa, FcγRIIa (R), FcγRIIa (H), and FcγRIIIa, respectively.
# (§2) Analysis of interaction between objective antibody and the FcγR was carried out using Biacore T100 (GE Healthcare). HBS-EP+ (GE Healthcare) was used as the running buffer, and the measurement temperature was set to 25° C. Chips produced by immobilizing the antigen peptide by the amine coupling method to a Series S Sencor Chip CM5 (GE Healthcare), or alternatively, chips produced by allowing preliminarily biotinylated antigen peptides to interact with and immobilize onto a Series S Sensor Chip SA (certified) (GE Healthcare) were used. Antibodies of interest were captured onto an antigen peptide-immobilized chip, and allowed to interact to each FcγR diluted with running buffer. To regenerate and repeatedly use the chip, the antibodies captured on the chip were washed off by reacting 10 mM glycine-HCl, pH 1.5.
row,Binder,He/Con_2aH
1,B1,109 % of control
2,B2,102 % of control
3,B3,101 % of control
4,B4,108 % of control
5,B5,102 % of control
6,B6,102 % of control
7,B7,102 % of control

# Target: T2, FcγRIIb
# Test: as above
# Method: as §1, §2
row,Binder,He/Con_2b
1,B1,95 % of control
2,B2,90.8 % of control
3,B3,87.6 % of control
4,B4,84.8 % of control
5,B5,95 % of control
6,B6,94.6 % of control
7,B7,76.5 % of control

# Target: T3, FcγRIIa H (FcgRIIa type H, His at …)
# Test: SPR (Biacore), relative binding, GpH7-A5/GpH7-B3/GpL16-k0 = 100
row,Binder,He/Con_2aH
1,B8,48.2 % of control
2,B9,45.2 % of control
3,B10,56.8 % of control
4,B11,84.7 % of control
5,B12,79.7 % of control
6,B13,84.5 % of control
7,B14,58.5 % of control
8,B15,77.4 % of control
9,B16,86 % of control
10,B17,38.1 % of control
11,B18,33.4 % of control
12,B19,52 % of control
13,B20,99.7 % of control
14,B21,97.6 % of control
15,B22,55.5 % of control
16,B23,82.5 % of control
17,B24,90 % of control
18,B25,47.2 % of control
19,B26,99.4 % of control
20,B27,97.8 % of control
21,B28,99.8 % of control
22,B29,93.9 % of control
23,B30,99.7 % of control
24,B31,86.8 % of control
25,B32,85.1 % of control
26,B33,71.7 % of control
27,B34,82.8 % of control
28,B35,53.1 % of control
29,B36,87.1 % of control

# Target: T4, FcγRIIb, extracellular domain with …
# Test: as above
row,Binder,He/Con_2b
1,B8,217 % of control
2,B9,111 % of control
3,B10,101 % of control
4,B11,110 % of control
5,B12,177 % of control
6,B13,116 % of control
7,B14,199 % of control
8,B15,114 % of control
9,B16,114 % of control
10,B17,171 % of control
11,B18,143 % of control
12,B19,197 % of control
13,B20,115 % of control
14,B21,104 % of control
15,B22,172 % of control
16,B23,119 % of control
17,B24,193 % of control
18,B25,169 % of control
19,B26,100 % of control
20,B27,126 % of control
21,B28,103 % of control
22,B29,160 % of control
23,B30,111 % of control
24,B31,105 % of control
25,B32,102 % of control
26,B33,219 % of control
27,B34,111 % of control
28,B35,124 % of control
29,B36,116 % of control
